# ± gives the standard deviation of the averaged measurements.
# Tested on: ATP
# Test: switch fluorescence ratio, 500 uM ATP over buffer (Cy3 cluster intensity, sum of 5 cycles each) (fold (ratio)); higher = stronger signal-on switching upon ATP binding; sequences stand for … in TCGTCGGCAGCGTCAGATGTGTATAAGAGACAGTTTTTTTTTTTTTTTTTTTTTTTTT…TC
# Settings: aptamer strand: ATP DNA aptamer (quencher-CACCTGGGGGAGTATTGCGGAGGAAGG + anchor), 100 nM annealed; ATP concentration: 500 uM
# Outline: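 Five buffer/ATP imaging cycles were run on Cy3-labelled switching-strand clusters on a modified Illumina MiSeq flow-cell, with NaOH stripping and re-annealing between cycles. In each cycle, clusters annealed to 100 nM quencher-labelled ATP aptamer were imaged in selection buffer, then after 15 min with 500 uM ATP at 22 °C. Per cluster, the fluorescence ratio is summed target-cycle over summed buffer-cycle Cy3 intensity, averaged per switch-domain sequence. Only clusters within 100-1000 RFU were kept.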
# 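Also: ATP exposure 15 min at 22 °C before imaging.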
row,Sequence,switch fluorescence ratio
1,ATGGGACATT,1.03 ± 0.079
2,GCTTCTATGC,1.02 ± 0.037
3,GTGGGGACAC,0.973 ± 0.036
4,GGAATCGGCG,0.988 ± 0.017
5,GGGTAAGGTT,0.985 ± 0.028
6,CGATCGGATT,1.01 ± 0.017
7,GAAATTTTGT,0.994 ± 0.012
8,TTGGATTAGT,0.982 ± 0.011
9,TTACTATTGG,0.978 ± 0.013
10,AGAAGCTAGT,0.983 ± 0.044
11,GTTATATAAC,1.03 ± 0.058
12,TTATTGAAAA,1 ± 0.032
13,CTCGTTTGAT,1 ± 0.026
14,AATAGGAGAG,0.987 ± 0.0099
15,TGTGGTAGCC,1.022 ± 0.0018
16,GGGGGCATAA,1.03 ± 0.076
17,TTTAGGCATT,1.03 ± 0.031
18,GGTCGGTTGG,0.97591 ± 0.00041
19,CTCGGGGTTT,0.998 ± 0.038
20,GACTTATCTA,1.016 ± 0.0073
21,TCATAAGTGC,0.977 ± 0.011
22,GTTCGAAGAC,1.015 ± 0.0023
23,TACGGATCGT,0.974 ± 0.03

row,Sequence,switch fluorescence ratio
1,GGATACGGGA,1.05 ± 0.084
2,GTCAGAATGT,1.02 ± 0.017
3,AAGACTCGGT,0.9518 ± 0.0012
4,CGGTAATGGG,0.943 ± 0.031
5,TTAGGCGTAT,0.989 ± 0.041
6,AAATTTAGTT,1.017 ± 0.006
7,CGTGTATTTG,0.989 ± 0.011
8,ACGTTGCGTT,1.02 ± 0.025
9,TCACACGGAG,1.043 ± 0.0056
10,GCAAATGTAT,1.004 ± 0.0037
11,TTCAGGGTAT,1.01 ± 0.037
12,TTTCATTATT,1.02 ± 0.02
13,TAAGGCTGGG,0.962 ± 0.034
14,TGTAATATGG,1.1 ± 0.14
15,TGTGTTAGTA,0.9602 ± 0.0053
16,GGTTACGGC,1.07 ± 0.17
17,GGATACTGCA,1.043 ± 0.0054
18,CTAATTTGGT,1.01 ± 0.016
19,AGTTTGTACG,1.04 ± 0.024
20,TAGGGAAGAT,1.07 ± 0.013
21,ATCATACTTG,1.03 ± 0.029
22,CGTATTATTA,0.988 ± 0.03
23,AGCAGGGCGG,0.983 ± 0.011

row,Sequence,switch fluorescence ratio
1,CCAGGGGTGG,1.02 ± 0.064
2,TTTTTACCAT,1.04 ± 0.022
3,GTTTTCGGTA,0.9802 ± 8.4e-05
4,CGGGGGATT,1.03 ± 0.02
5,GGATTTGATG,1 ± 0.031
6,TTTCTCGTCT,0.988 ± 0.011
7,GTTGAGGGGA,1.01 ± 0.058
8,TAAATTGTCG,0.994 ± 0.053
9,TACCAAACGG,2.23 ± 1.4
10,CGGACTGGGA,1.007 ± 0.0052
11,CGTCACTAGC,1.04 ± 0.022
12,TCTAATGTGG,0.983 ± 0.043
13,GGCGCACGGG,1.02 ± 0.026
14,ATTGGTAAGG,0.995 ± 0.025
15,TTTCGCGACA,1.34 ± 0.5
16,TACCGGGGTC,1 ± 0.042
17,AGGCTTGTGC,1.01 ± 0.081
18,GATTAAGCGT,0.984 ± 0.042
19,GGGGTGAATG,0.974 ± 0.04
20,CGTGGGGGCA,0.9538 ± 0.0076
21,TGTGGAAAGA,0.992 ± 0.054
22,AGGGCTCGTT,0.9801 ± 0.0094
23,TTTACGGGAT,1.06 ± 0.036

row,Sequence,switch fluorescence ratio
1,GGCCGTTGGG,0.965 ± 0.016
2,CGAAAGAAAT,1.02 ± 0.031
3,GAGAGTGGGG,0.985 ± 0.037
4,ATCCAGACGG,1.04 ± 0.026
5,TGATTGACGG,0.975 ± 0.015
6,TGTCCTAGAG,1.02 ± 0.024
7,GCGTATCTTA,0.968 ± 0.014
8,TCATCGGGG,0.947 ± 0.027
9,TTTGGGGCCC,1.03 ± 0.041
10,TTTTACTTAA,1.28 ± 0.37
11,TTTTGTTTTG,1 ± 0.043
12,GCGGGTGGGA,1.02 ± 0.034
13,TTTGATGTGT,0.997 ± 0.032
14,GATCGTATAT,0.9987 ± 0.0084
15,TGGGGGTGGT,1 ± 0.028
16,GGGGGGCATA,1.01 ± 0.012
17,GATGAAACGT,1.06 ± 0.045
18,GGCTTAGGCA,1.01 ± 0.04
19,GTTGGTTCTT,1 ± 0.039
20,AACCTGGGGG,1.1 ± 0.15
21,GGGTGTGGAC,1.04 ± 0.023
22,GGGGGGAACG,0.971 ± 0.024
23,TTCATATATG,0.989 ± 0.018

row,Sequence,switch fluorescence ratio
1,CCGGGGGATC,1.1 ± 0.017
2,GTAAGATGAA,1.01 ± 0.018
3,ATAGCGGGGG,0.998 ± 0.031
4,AGACAACGGC,1.02 ± 0.03
5,TTAACGGTGT,1.004 ± 0.005
6,ATTTCCGTTT,0.984 ± 0.013
7,GACTTGGGGC,0.993 ± 0.037
8,AGCACGGGTT,1.21 ± 0.3
9,CGCTATGTGG,1.02 ± 0.041
10,GATAATTCTG,1 ± 0.024
11,AAGGTGTTTC,1.083 ± 0.0066
12,GGTGGGGAGT,1.01 ± 0.021
13,ATGATACATA,1.02 ± 0.019
14,ATAGGAAATC,2.74 ± 0.75
15,AGTATATCGC,1 ± 0.022
16,CTGAGCTTTC,1.29 ± 0.15
17,GGGGAAGGGT,1.08 ± 0.23
18,CAAAAGTCTT,1.02 ± 0.037
19,CAAATAGGGG,0.971 ± 0.024
20,TGGGGCAACG,0.979 ± 0.034
21,AAGGAGCAGT,0.985 ± 0.13
22,TGTTGGGCTC,0.989 ± 0.047
23,GGGGCCACGA,1.01 ± 0.014

row,Sequence,switch fluorescence ratio
1,GAAACGGTGT,1.02 ± 0.031
2,CCGTTTTGCG,1.02 ± 0.027
3,TTGGGCGAGG,1.025 ± 0.0075
4,AATCTATATT,1.01 ± 0.025
5,TCGAGTGGAG,1.0319 ± 0.00064
6,TGTTAGGTGA,1.07 ± 0.011
7,AGGGGAAAAG,0.993 ± 0.049
8,AGTGCACGTG,1 ± 0.061
9,TAGCTCGGGC,1.03 ± 0.019
10,TTTTAAAATG,1.01 ± 0.032
11,GATGGCGGGC,1.01 ± 0.013
12,AAAAGGACTT,0.994 ± 0.002
13,GCCTTGGACG,1.041 ± 0.0076
14,ACTAATAAGT,0.999 ± 0.028
15,TGTGAATCAG,1.018 ± 0.0075
16,GATTTTTGGT,0.995 ± 0.028
17,GTAAGGGGCA,1.07 ± 0.047
18,CCTTGCAGAT,1.99 ± 0.78
19,TAGGCTGCTG,0.988 ± 0.021
20,GGCTAGGGGG,1.01 ± 0.022
21,ACGCGGCAGG,1.02 ± 0.022
22,TCAAGGGAAC,0.9826 ± 0.004
23,TTGAATGAAT,1.015 ± 0.0031

row,Sequence,switch fluorescence ratio
1,GAGATGGGGT,0.995 ± 0.016
2,GGCAGTCGTA,0.955 ± 0.081
3,TTTTAAGAAT,1.005 ± 0.0078
4,TAACGCATCT,1.149 ± 0.0052
5,TGCATAAATT,0.9873 ± 0.0034
6,TCTGGTTTTG,0.984 ± 0.043
7,ATCAGGTAAG,0.9682 ± 0.0024
8,AATATAGGT,1.02 ± 0.033
9,GCTATCGTGC,0.975 ± 0.013
10,GATAATTATG,0.98 ± 0.019
11,TTTTGTTGT,0.987 ± 0.024
12,AGGTGTTTTT,1.03 ± 0.032
13,TCGATTTCTT,1.1 ± 0.077
14,CGGGTTGTTA,0.9951 ± 0.0081
15,GAGTGTGCGC,1.02 ± 0.03
16,AAGATGGTAG,0.971 ± 0.038
17,AGAAGAAATC,1.016 ± 0.008
18,AAAGAAAAAA,1.012 ± 0.0025
19,TGGAGGGGCA,1.03 ± 0.022
